From US20200247889A1 (published 2020)

T1: cynomolgus TREM1 (cynomolgus, UniProt A0A2K5VHG8 21-233)
T1 construct: whole, on cells; also called cTREM1
T1 sequence: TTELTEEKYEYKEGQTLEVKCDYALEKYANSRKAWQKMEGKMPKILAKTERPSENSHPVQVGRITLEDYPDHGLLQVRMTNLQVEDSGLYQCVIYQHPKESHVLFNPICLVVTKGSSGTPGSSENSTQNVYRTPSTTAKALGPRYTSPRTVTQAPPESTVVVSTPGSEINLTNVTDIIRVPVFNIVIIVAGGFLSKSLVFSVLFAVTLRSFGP

T2: mouse TREM1 (mouse, UniProt Q9JKE2 21-230)
T2 construct: whole, on cells; also called mTREM1
T2 sequence (looked up): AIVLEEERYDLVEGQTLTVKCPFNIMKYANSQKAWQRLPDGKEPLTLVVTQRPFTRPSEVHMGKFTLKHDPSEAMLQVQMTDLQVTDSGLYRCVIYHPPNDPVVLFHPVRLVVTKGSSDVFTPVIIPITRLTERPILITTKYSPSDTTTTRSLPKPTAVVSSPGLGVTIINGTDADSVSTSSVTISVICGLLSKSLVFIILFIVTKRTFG


Tests used:
[1] = target: T1, cynomolgus TREM1; experiment: flow cytometry on HEK293 cells over-expressing cynomolgus TREM-1
Protocol: Titrations of indicated unconjugated antibodies were incubated with these cells within a range of 0 ug/ml to 30 ug/ml in a 1:4 or 1:5 dilution range across 8 points. […] EC50 values were calculated by curve fitting signal generated from antibodies binding to over-expressing cells over background fluorescence generated from HEK293 parental cells in Graphpad Prism (Graphpad Software).

[2] = target: T2, mouse TREM1; experiment: flow cytometry cross-blocking on HEK293 cells over-expressing mouse TREM-1
Protocol: 100,000 HEK293 cells over-expressing mouse TREM-1 were plated in 96 well plates and dead cells were stained with Zombie Near Infrared (Biolegend, San Diego, Calif.). These cells were subsequently incubated with the indicated unconjugated anti-mouse TREM-1 antibodies at saturating concentrations for 15 mins on ice. Following incubation with these antibodies, cells were then stained with the indicated Alexa Fluor 647 conjugated antibodies for 30 mins on ice. The ability of conjugated antibodies to bind in the presence of unconjugated antibodies was assessed by Alexa 647 signal measured by flow cytometry (BD Fortessa X-14, BD Biosciences, San Jose, Calif.).
The sequences denote the linear amino acid stretches that comprise each domain and the numbering is according to UniProt sequence analysis and 3D modelling of mouse TREM1.

[3] = target: T2, mouse TREM1; experiment: in vivo receptor occupancy, flow cytometry of tumor cells
Protocol: CT26 (colon adenocarcinoma), LL/2 (lung adenocarcinoma), MC38 (colon adenocarcinoma), and RENCA (renal cell carcinoma) were harvested using StemPro Accutase Dissociation reagent (Gibco Corporation), washed in PBS and subcutaneously injected to female C57BL/6 (Jackson Laboratories) or BALB/c (Taconic Biosciences) mice at a dose between 8×10⁵-1×10⁶ cells in the right ventral flank. […] Antibody treatments were 15 mg/kg for both arms and mice were treated twice at the indicated time points. 48 hr after the second dose, mice were euthanized and the tumor and blood were harvested for immune population analysis and expression of TREM1. Immune population and expression analyses were performed by flow cytometry (BD Fortessa X-14, BD Biosciences).

[4] = target: T2, mouse TREM1; experiment: flow cytometry on HEK293 cells over-expressing mouse TREM-1
Protocol: 100,000 HEK 293 parental or over-expressing mouse TREM-1 were plated in 96 well plates and dead cells were stained with Zombie Near Infrared (Biolegend, San Diego, Calif.). […] These primary unconjugated antibodies were detected with Alexa Fluor 647 conjugated anti-mouse Fcγ secondary antibodies (Jackson Immunoresearch, West Grove, Pa.). Alexa Fluor 647 signal was measured by flow cytometry (BD Fortessa X-14, BD Biosciences, San Jose, Calif.). EC50 values were calculated by curve fitting signal generated from antibodies binding to over-expressing cells over background fluorescence generated from HEK293 parental cells in Graphpad Prism (Graphpad Software, La Jolla, Calif.).

Binder | binding result [2] | binding result [4] | also measured
Pi-8421 (antibody, V domains shown) VH: EVQLVESGGGLVQPGGSLRLSCAASGFDISYSSIHWVRQAPGKGLEWVASIYSSYGSTYYADSVKGRFTISADTSKNTAYLQMNSLRAEDTAVYYCARYYYSHAGWYVSGYWPAIDYWGQGTLVTVSS VL: DIQMTQSPSSLSASVGDRVTITCRASQSVSSAVAWYQQKPGKAPKLLIYSASSLYSGVPSRFSGSRSGTDFTLTISSLQPEDFATYYCQQSSYSLITFGQGTKVEIK | – | – | binding result [1]: no binding (tested: titrated within 0 ug/ml to 30 ug/ml)
Pi-9067L (antibody, mouse IgG2a, kappa, V domains shown, Anti-mouse TREM1; also called WT Pi-9067L; fucosylated PI-9067L) VH: EVQLVESGGGLVQPGGSLRLSCAASGFDIYSYSIHWVRQAPGKGLEWVAYIYPSYGYTSYADSVKGRFTISADTSKNTAYLQMNSLRAEDTAVYYCARGAVAALDYWGQGTLVTVSS VL: DIQMTQSPSSLSASVGDRVTITCRASQSVSSAVAWYQQKPGKAPKLLIYSASSLYSGVPSRFSGSRSGTDFTLTISSLQPEDFATYYCQQYGVSGYSLITFGQGTKVEIKR | binds | – | –
Pi-9069L (antibody, mouse IgG2a, kappa, V domains shown) VH: EVQLVESGGGLVQPGGSLRLSCAASGFDLYSSYIHWVRQAPGKGLEWVASIYPSYGYTYYADSVKGRFTISADTSKNTAYLQMNSLRAEDTAVYYCARSHSYVHGAMDYWGQGTLVTVSS VL: DIQMTQSPSSLSASVGDRVTITCRASQSVSSAVAWYQQKPGKAPKLLIYSASSLYSGVPSRFSGSRSGTDFTLTISSLQPEDFATYYCQQYWWVPAAPITFGQGTKVEIKR | – | – | binding result [3]: binds
afucosylated Pi-9067L (antibody, mouse IgG2a, kappa, V domains shown, afucosylated Fc glycan, Same polypeptides as Pi-9067L, afucosylated; also called Afuc-Pi-9067L; Afuc-PI-9067L) VH: EVQLVESGGGLVQPGGSLRLSCAASGFDIYSYSIHWVRQAPGKGLEWVAYIYPSYGYTSYADSVKGRFTISADTSKNTAYLQMNSLRAEDTAVYYCARGAVAALDYWGQGTLVTVSS VL: DIQMTQSPSSLSASVGDRVTITCRASQSVSSAVAWYQQKPGKAPKLLIYSASSLYSGVPSRFSGSRSGTDFTLTISSLQPEDFATYYCQQYGVSGYSLITFGQGTKVEIKR | – | binds | –
Pi-9772 (antibody, mouse IgG2a, kappa, V domains shown, Anti-mouse TREM1 mAb) VH: EVQLVESGGGLVQPGGSLRLSCAASGFDLSYSSMHWVRQAPGKGLEWVAYISPYSGYTSYADSVKGRFTISADTSKNTAYLQMNSLRAEDTAVYYCARHGSWSYGFSSGFDYWGQGTLVTVSS VL: DIQMTQSPSSLSASVGDRVTITCRASQSVSSAVAWYQQKPGKAPKLLIYSASSLYSGVPSRFSGSRSGTDFTLTISSLQPEDFATYYCQQYAYYYPITFGQGTKVEIKR | binds | – | –
afucosylated Pi-9772 (antibody, mouse IgG2a, kappa, V domains shown, afucosylated Fc glycan) VH: EVQLVESGGGLVQPGGSLRLSCAASGFDLSYSSMHWVRQAPGKGLEWVAYISPYSGYTSYADSVKGRFTISADTSKNTAYLQMNSLRAEDTAVYYCARHGSWSYGFSSGFDYWGQGTLVTVSS VL: DIQMTQSPSSLSASVGDRVTITCRASQSVSSAVAWYQQKPGKAPKLLIYSASSLYSGVPSRFSGSRSGTDFTLTISSLQPEDFATYYCQQYAYYYPITFGQGTKVEIKR | – | binds | –
Pi-4928 (antibody, mouse IgG2a, kappa, V domains shown, Anti-mouse TREM1 mAb) VH: QVQLKESGPGLVQPSQTLSLTCTVSGFSITSSNVYWFRQPPGKGLEWMGNIWGDGSTDYNSSLKSRLTLSRDTSKNQVFLKINSLQSEDTATYFCTRSWEYYFDHWGQGVVVTVSS VL: DIVLTQSPALAVSPGQRATLSCRASQSVTLSNVNLMNWYQQKPGQQPKLLIYHASNLASGIPTRFSGSGSGTDFTLTIDPVQADDIAAYYCQQSGESPRTFGGGTKVELKR | binds | – | –
afucosylated Pi-4928 (antibody, mouse IgG2a, kappa, V domains shown, afucosylated Fc glycan) VH: QVQLKESGPGLVQPSQTLSLTCTVSGFSITSSNVYWFRQPPGKGLEWMGNIWGDGSTDYNSSLKSRLTLSRDTSKNQVFLKINSLQSEDTATYFCTRSWEYYFDHWGQGVVVTVSS VL: DIVLTQSPALAVSPGQRATLSCRASQSVTLSNVNLMNWYQQKPGQQPKLLIYHASNLASGIPTRFSGSGSGTDFTLTIDPVQADDIAAYYCQQSGESPRTFGGGTKVELKR | – | binds | –
